Measurements published in patent US20230235090A1 (HARBOUR BIOMED US, published 2023).
Blank lines part the entries; values can stand above or below the binder they belong to.

How the values were obtained:
human 4-1BB [1] = molecular target: T1, human 4-1BB (human, UniProt Q07011 24-255); test: FACS, CHO-K1/hu 4-1BB cells [B]
T1 construct: whole, on cells; also called CD137; TNFRSF9
Description: (§1) This example is intended to investigate the in vitro binding activity of anti-human 4-1BB HCAb and H2L2 monoclonal antibodies to human and cynomolgus monkey 4-1BB. Antibody binding experiments at the cellular level were conducted using a CHO-K1 cell strain overexpressing human 4-1BB (CHO-K1-hu 4-1BB, Genescript) and a CHO-K1 cell strain overexpressing cynomolgus monkey 4-1BB (CHO-K1-cyno 4-1BB, Genescript). Briefly, the CHO-K1-hu 4-1BB and CHO-K1-cyno 4-1BB cells were digested and resuspended in DMEM complete medium, and the cell density was adjusted to 1×10⁶ cells/mL. […] The cells were incubated at 4° C. for 1 h away from light. Thereafter, the cells in each well were rinsed twice with 100 μL of pre-cooled PBS, and centrifuged at 500 g at 4° C. for 5 min, and then the supernatant was discarded. […] The plate was incubated away from light at 4° C. for 30 min. The cells in each well were rinsed twice with 100 μL of pre-cooled PBS, and centrifuged at 500 g at 4° C. for 5 min, and then the supernatant was discarded. Finally, the cells in each well were resuspended in 200 μL of pre-cooled PBS, and the fluorescence signal values were read using a BD FACS CANTOII.

cynomolgus monkey 4-1BB [2] = molecular target: T2, cynomolgus monkey 4-1BB (cynomolgus monkey); test: FACS, CHO-K1/cyno 4-1BB cells [B]
T2 construct: whole, on cells; also called CHO-K1-cyno 4-1BB; CHO-K1/cyno4-1BB
Description: as §1

human 4-1BB [3] = molecular target: T1, human 4-1BB; test: FACS, CHO-K1/hu 4-1BB cells [E]
Description: (§2) Antibody binding experiments at the cellular level were conducted using a CHO-K1 cell strain overexpressing human 4-1BB (CHO-K1-hu 4-1BB, Genescript) and a CHO-K1 cell strain overexpressing cynomolgus monkey 4-1BB (CHO-K1-cyno 4-1BB, Genescript). Briefly, the CHO-K1-hu 4-1BB and CHO-K1-cyno 4-1BB cells were digested and resuspended in DMEM complete medium, and the cell density was adjusted to 1×10⁶ cells/mL. […] The cells were incubated at 4° C. for 1 h away from light. Thereafter, the cells in each well were rinsed twice with 100 μL of pre-cooled PBS, and centrifuged at 500 g at 4° C. for 5 min, and then the supernatant was discarded. […] The plate was incubated away from light at 4° C. for 30 min. The cells in each well were rinsed twice with 100 μL of pre-cooled PBS, and centrifuged at 500 g at 4° C. for 5 min, and then the supernatant was discarded. Finally, the cells in each well were resuspended in 200 μL of pre-cooled PBS, and the fluorescence signal values were read using a BD FACS CANTOII.

cynomolgus monkey 4-1BB [4] = molecular target: T2, cynomolgus monkey 4-1BB; test: FACS, CHO-K1/cyno 4-1BB cells [E]
Description: as §1

human 4-1BB [5] = molecular target: T1, human 4-1BB; test: FACS, CHO-K1/hu 4-1BB cells [A]
Description: as §1

human B7-H4 = molecular target: T3, human B7-H4 (human, UniProt Q7Z7D3 25-282); test: FACS, SK-BR-3 cells [A]
T3 construct: whole, on cells; also called VTCN1; SK-BR-3 cell line highly expressing B7-H4
T3 sequence (looked up): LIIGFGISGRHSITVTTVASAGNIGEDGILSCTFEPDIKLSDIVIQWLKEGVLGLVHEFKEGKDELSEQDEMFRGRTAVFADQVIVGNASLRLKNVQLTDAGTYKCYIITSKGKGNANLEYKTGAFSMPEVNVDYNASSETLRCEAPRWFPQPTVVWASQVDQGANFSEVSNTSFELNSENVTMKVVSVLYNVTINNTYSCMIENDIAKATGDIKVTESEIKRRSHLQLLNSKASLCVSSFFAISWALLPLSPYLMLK
Description: (§3) This example is intended to investigate the in vitro binding activity of anti-human B7-H4 H2L2 monoclonal antibody to human/cynomolgus monkey/mouse B7-H4. Antibody binding experiments at the cellular level were conducted using a CHO-K1 cell strain overexpressing cynomolgus monkey B7-H4 (CHO-K1/cyno B7-H4, prepared in-house by Harbour Biomed), a CHO-K1 cell strain overexpressing mouse B7-H4 (CHO-K1/m B7-H4, prepared in-house by Harbour Biomed) and an SK-BR-3 cell line highly expressing human B7-H4 (ATCC® HTB-30). Briefly, the CHO-K1/cyno B7-H4 cells, CHO-K1/m B7-H4 cells or SK-BR-3 cells were digested and resuspended with PBS containing 2% BSA. The cell density was adjusted to 1×10⁶ cells/mL. […] The cells were incubated at 4° C. for 2 h away from light. Thereafter, the cells in each well were rinsed twice with 100 μL of pre-cooled PBS containing 2% BSA, and centrifuged at 500 g at 4° C. for 5 min, and then the supernatant was discarded. […] The plate was incubated away from light at 4° C. for 1 h. The cells in each well were rinsed twice with 100 μL of pre-cooled PBS containing 2% BSA, and centrifuged at 500 g at 4° C. for 5 min, and then the supernatant was discarded. Finally, the cells in each well were resuspended in 200 μL of pre-cooled PBS containing 2% BSA, and the fluorescence signal values were read using an ACEA Novocyte3000 flow cytometer.

mouse B7-H4 = molecular target: T4, mouse B7-H4 (mouse, UniProt Q7TSP5 25-257); test: FACS, CHO-K1/m B7H4 cells [C]
T4 construct: whole, on cells; also called CHO-K1/m B7-H4; CHO-K1/mB7-H4
T4 sequence (looked up): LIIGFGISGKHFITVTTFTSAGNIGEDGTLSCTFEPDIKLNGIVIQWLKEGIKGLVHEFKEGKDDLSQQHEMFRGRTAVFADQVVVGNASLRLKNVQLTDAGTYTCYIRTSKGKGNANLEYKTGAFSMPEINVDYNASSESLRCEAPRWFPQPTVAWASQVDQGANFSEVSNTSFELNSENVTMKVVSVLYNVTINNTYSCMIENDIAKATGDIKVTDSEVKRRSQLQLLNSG
Description: as §3

cynomolgus monkey B7-H4 = molecular target: T5, cynomolgus monkey B7-H4 (cynomolgus monkey, UniProt A0A2K5U6P5 25-282); test: FACS, CHO-K1/cyno B7H4 cells [B]
T5 construct: whole, on cells; also called CHO-K1/cyno B7-H4; CHO-K1/cynoB7H4
T5 sequence: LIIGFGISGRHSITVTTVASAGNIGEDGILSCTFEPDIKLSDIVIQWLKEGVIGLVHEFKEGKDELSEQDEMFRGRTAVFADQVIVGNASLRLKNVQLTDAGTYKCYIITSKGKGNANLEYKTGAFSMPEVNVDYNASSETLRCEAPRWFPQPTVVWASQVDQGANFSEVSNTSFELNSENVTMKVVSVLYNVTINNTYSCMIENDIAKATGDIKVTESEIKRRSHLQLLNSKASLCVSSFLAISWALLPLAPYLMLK
Description: as §3

human 4-1BB [6] = molecular target: T1, human 4-1BB; test: FACS, CHO-K1/hu 4-1BB cells [F]
Description: as §1

cynomolgus monkey 4-1BB [7] = molecular target: T2, cynomolgus monkey 4-1BB; test: FACS, CHO-K1/cyno 4-1BB cells [F]
Description: as §1

human 4-1BB [8] = molecular target: T1, human 4-1BB; test: FACS, CHO-K1/hu 4-1BB cells [C]
Description: as §1

cynomolgus monkey 4-1BB [9] = molecular target: T2, cynomolgus monkey 4-1BB; test: FACS, CHO-K1/cyno 4-1BB cells [C]
Description: as §1

human 4-1BB [10] = molecular target: T1, human 4-1BB; test: FACS, CHO-K1/hu 4-1BB cells [D]
Description: as §2

cynomolgus monkey 4-1BB [11] = molecular target: T2, cynomolgus monkey 4-1BB; test: FACS, CHO-K1/cyno 4-1BB cells [D]
Description: as §1

cynomolgus monkey 4-1BB [12] = molecular target: T2, cynomolgus monkey 4-1BB; test: FACS, CHO-K1/cyno 4-1BB cells [A]
Description: as §1

T1 sequence (Q07011 24-255): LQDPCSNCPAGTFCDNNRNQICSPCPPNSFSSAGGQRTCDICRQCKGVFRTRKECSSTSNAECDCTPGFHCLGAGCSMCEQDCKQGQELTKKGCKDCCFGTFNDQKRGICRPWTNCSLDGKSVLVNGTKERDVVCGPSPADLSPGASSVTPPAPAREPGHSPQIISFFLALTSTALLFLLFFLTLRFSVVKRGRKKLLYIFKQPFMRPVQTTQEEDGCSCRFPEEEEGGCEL

EC50 (human 4-1BB [3]): 0.21 nM
Maximum MFI (human 4-1BB [3]): 1710 MFI
EC50 (cynomolgus monkey 4-1BB [4]): 1.02 nM
Maximum MFI (cynomolgus monkey 4-1BB [4]): 12600 MFI
B2: PR001833 (antibody, human IgG1, V domains shown)
VH: EVQLLESGGGLVQPGGSLRLSCAASGFTFSSYAMSWVRQAPEKGLEWVSSISGSGGSTFYADSVKGRFTISRDNSKNTLYLQMNSLRAEDTAVYFCAKEGATETDDYHFNTDVWGQGTTVTVSS
notes: anti-4-1BB HCAb, human IgG1 Fc

EC50 (human B7-H4): 2.22 nM
Maximum MFI (human B7-H4): 257000 MFI
EC50 (mouse B7-H4): 2.57 nM
Maximum MFI (mouse B7-H4): 1.69e+06 MFI
EC50 (cynomolgus monkey B7-H4): 2.38 nM
Maximum MFI (cynomolgus monkey B7-H4): 1.92e+06 MFI
B4: PR002037 (antibody, human IgG1, kappa, V domains shown)
VH: QVQLVQSGAEVKKPGSSMRVSCKASEDTFSSYAISWVRQAPGQGLEWMGGTAPIFGTTNYAQKFQGRVTITADKSTSTAYMELSSLRSEDTAVYYCARGGPYFDYWGQGTLVTVSS
VL: EIVMTQSPASLSVSPGERATLSCRASQSVSSNLAWYQQKPGQAPRLLIYGASTRATGIPARVSGGGSGTEFTLTISSLQSEDFAVYCCQQYKNWPFTFGPGTKLEIKR
notes: also called 1025_B-1H11 clone

EC50 (human B7-H4): 1.87 nM
Maximum MFI (human B7-H4): 245000 MFI
EC50 (mouse B7-H4): 2.38 nM
Maximum MFI (mouse B7-H4): 1.55e+06 MFI
EC50 (cynomolgus monkey B7-H4): 2.08 nM
Maximum MFI (cynomolgus monkey B7-H4): 1.86e+06 MFI
B5: PR002410 (antibody, human IgG1, kappa, V domains shown)
VH: QVQLVQSGAEVKKPGSSMRVSCKASEDTFSSYAISWVRQAPGQGLEWMGGTAPIFGTTNYAQKFQGRVTITADKSTSTAYMELSSLRSEDTAVYYCARGGPYFDYWGQGTLVTVSS
VL: EIVMTQSPASLSVSPGERATLSCRASQSVSSNLAWYQQKPGQAPRLLIYGASTRATGIPARVSGGGSGTEFTLTISSLQSEDFAVYYCQQYKNWPFTFGPGTKLEIKR
notes: anti-B7-H4 H2L2 recombinant fully human antibody, human IgG1 / kappa; also called PR002037 variant

EC50 (human 4-1BB [6]): 0.37 nM
Maximum MFI (human 4-1BB [6]): 1670 MFI
EC50 (cynomolgus monkey 4-1BB [7]): 1.25 nM
Maximum MFI (cynomolgus monkey 4-1BB [7]): 7300 MFI
B6: PR001840 (antibody, human IgG1, V domains shown)
VH: EVQLVESGGGLVQPGGSLRLSCAASGFTFSSYWMHWVRQAPGKGLVWVSRINSDGSSTSYADSVQGRFTISRDNAKNTLYLQMNSLRAEDTAVYYCVRKGSSSYYHYSIEDDWGQGTLVTVSS
notes: as for B2

EC50 (human 4-1BB [8]): 1.27 nM
Maximum MFI (human 4-1BB [8]): 1540 MFI
EC50 (cynomolgus monkey 4-1BB [9]): 6.73 nM
Maximum MFI (cynomolgus monkey 4-1BB [9]): 48000 MFI
B7: PR001774 (antibody, human IgG1, V domains shown)
VH: EVQLVESGGGLVQPGGSLRLSCAASGFTFSSFAMTWVRQAPEKGLEWVSTISGSGDTTYYADSVKGRFTISRDSSKNTLYLQMNSLRAEDSAVYFCAKEATAMASDYYYGVDVWGQGTTVTVSS
notes: as for B2

EC50 (human 4-1BB [3]): 0.209 nM
Maximum MFI (human 4-1BB [3]): 1830 MFI
EC50 (cynomolgus monkey 4-1BB [4]): 0.899 nM
Maximum MFI (cynomolgus monkey 4-1BB [4]): 14000 MFI
B9: PR001830 (antibody, human IgG1, V domains shown)
VH: EVQLLESGGGLVQPGGSLRLSCTASGFTFSNYAMSWVRQAPEKGLEWVSSISGSGGSTFYADSVKGRFTISRDNSKNTLYLQMNSLRAEDTAVYFCAKEGSSETDDHYYNVDVWGQGTTVTVSS
notes: as for B2

EC50 (human 4-1BB [10]): 0.708 nM
Maximum MFI (human 4-1BB [10]): 1700 MFI
EC50 (cynomolgus monkey 4-1BB [11]): 2.99 nM
Maximum MFI (cynomolgus monkey 4-1BB [11]): 55500 MFI
B11: PR001780 (antibody, human IgG1, V domains shown)
VH: EVQLLESGGGLIQPGGSLRLSCAASGFTFSSFAMTWVRQAPGKGLEWVSTISGSGDNTYYADSVKGRFTISRDNSKNTLYLQMNSLRAEDTAVYFCAKEDTAVASDYYYNIDVWGQGTTVTVSS
notes: as for B2

EC50 (human 4-1BB [10]): 0.492 nM
Maximum MFI (human 4-1BB [10]): 1760 MFI
EC50 (cynomolgus monkey 4-1BB [11]): 3.1 nM
Maximum MFI (cynomolgus monkey 4-1BB [11]): 58300 MFI
B13: PR001781 (antibody, human IgG1, V domains shown)
VH: EVQLLESGGGLVQLGGSLRLSCAASGFTFSSYAMTWVRQAPEKGLEWVSSISGSGGNTYYADSVKGRFTISRDNSKNTLYLQMNSLRAEDTAVYYCAKERTGTTGDYYYNVDVWGQGTTVTVSS
notes: as for B2

EC50 (human 4-1BB [6]): 0.28 nM
Maximum MFI (human 4-1BB [6]): 1830 MFI
EC50 (cynomolgus monkey 4-1BB [4]): 2.41 nM
Maximum MFI (cynomolgus monkey 4-1BB [4]): 15900 MFI
B14: PR001836 (antibody, human IgG1, V domains shown)
VH: EVQLLESGGGLVQPGGSLRLSCAASGFIFSNFAMTWVRQPPEKGLKWVSSINGSGFNTYYTDSVKGRFTISRDNSRNTLYLQMNRLTAEDTAVYFCAKEGSSETDDHYYNVDVWGQGTTVTVSS
notes: as for B2

Further lines, the binder ahead of its results:

B1: PR001764 (antibody, human IgG1, V domains shown)
VH: EVQLLESGGGLVQPGGSLRLSCAASGFTFSSYAMSWVRQAPEKGLEWVSAISGGGGSTYYADSVKGRFTISRDNSKNTLYLQMDSLKAEDTAVYYCAKEGTTETDDYHYNMDVWGQGTTVTVSS
notes: as for B2
EC50 (human 4-1BB [1]): 0.249 nM
Maximum MFI (human 4-1BB [1]): 1560 MFI
EC50 (cynomolgus monkey 4-1BB [2]): 5.33 nM
Maximum MFI (cynomolgus monkey 4-1BB [2]): 77300 MFI

B3: PR001763 (antibody, human IgG1, V domains shown)
VH: EVQLLESGGGLVQPGGSLRLSCTASGFTFSNYAMSWVRQAPEKGLEWVSSISGSGGSTFYADSVKGRFTISRDNSKNTLYLQMNRLTAEDTAVYYCAKEGSNGTDDYHYDIDVWGQGTTVTVSS
notes: as for B2
EC50 (human 4-1BB [5]): 0.616 nM
Maximum MFI (human 4-1BB [5]): 1600 MFI
Maximum MFI (cynomolgus monkey 4-1BB [2]): 57700 MFI

B8: PR001768 (antibody, human IgG1, V domains shown)
VH: EVQLLESGGGLVQPGGSLRLSCAASGFTFSNYAMTWVRQAPGKGLEWVSSISGSGDSTYYADSVKGRFTISRDNSKNTLYLQMNSLRAEDTAVYYCAKEGTGTTSDYYYNVDVWGQGTTVTVSS
notes: as for B2
EC50 (human 4-1BB [1]): 0.846 nM
Maximum MFI (human 4-1BB [1]): 1550 MFI
EC50 (cynomolgus monkey 4-1BB [9]): 6.97 nM
Maximum MFI (cynomolgus monkey 4-1BB [9]): 62200 MFI

B10: PR001771 (antibody, human IgG1, V domains shown)
VH: EVQLLESGGGLVQPGGSLRLSCAASGFTFSNYAMTWVRQPPGKGLEWVSSISGSGGSTYYADSVKGRFTISRDNSKNTLYLQMNSLRAEDTAVYYCAKEGTGTTSDYYYNVDVWGQGTTVTVSS
notes: as for B2
EC50 (human 4-1BB [8]): 0.532 nM
Maximum MFI (human 4-1BB [8]): 1720 MFI
EC50 (cynomolgus monkey 4-1BB [9]): 3.77 nM
Maximum MFI (cynomolgus monkey 4-1BB [9]): 65700 MFI

B12: PR001758 (antibody, human IgG1, V domains shown)
VH: EVQLLESGGGLVQLGGSLRLSCAASGFTFSRYAMTWVRQAPEKGLEWVSSISGSGDDTYYGDSVKGRFTISRDNSQNTVYLQMNSLRAEDTAVYFCAKEKAGTTGDYYYNVDVWGQGTTVTVSS
notes: anti-4-1BB fully human heavy-chain-only antibody (HCAb): VH fused to human IgG1 Fc
EC50 (human 4-1BB [5]): 0.212 nM
Maximum MFI (human 4-1BB [5]): 1640 MFI
EC50 (cynomolgus monkey 4-1BB [12]): 0.575 nM
Maximum MFI (cynomolgus monkey 4-1BB [12]): 11200 MFI

B15: PR001476 (antibody, human IgG1, kappa, V domains shown)
VH: QVQLVESGGGVVQPGRSLRLSCAASGFTFRSFGMHWVRQAPGKGLEWVAVISYDGSNEYYADSVKGRFIISRDNSKDTLYLQMNSLRAGDTAVYYCAKGGGLRWYFAYWGQGTLVTVSS
VL: EIVMTQSPATLSVSPGERATLSCRASQSISSNLGWYQQKPGQAPRLLIYGASTRATGIPARFSGSGSGTEFTLTISSLQSEDFAVYYCQQYNSWPPLTFGGGTKVEIKR
notes: anti-B7-H4 H2L2 recombinant fully human antibody, human IgG1 / kappa; also called 80C8-2E9 clone
EC50 (human B7-H4): 0.367 nM
Maximum MFI (human B7-H4): 239000 MFI
EC50 (mouse B7-H4): 3.61 nM
Maximum MFI (mouse B7-H4): 353000 MFI
EC50 (cynomolgus monkey B7-H4): 1.1 nM
Maximum MFI (cynomolgus monkey B7-H4): 1.82e+06 MFI

B16: PR001767 (antibody, human IgG1, V domains shown)
VH: EVQLVETGGGLIQPGGSLRLSCAASGFTVSSNYMSWVRQAPGKGLEWVSVIYSDGSTYYADSVKGRFTISRDNSKNTLYLQMNSLRAEDTAVYYCARDRYYGSGNYPTAYYGMDVRGQGTTVTVSS
notes: as for B2
EC50 (human 4-1BB [1]): 5.87 nM
Maximum MFI (human 4-1BB [1]): 1450 MFI
EC50 (cynomolgus monkey 4-1BB [2]): 25 nM
Maximum MFI (cynomolgus monkey 4-1BB [2]): 68400 MFI
